Data on 27 molecules can be found in publication PMC10786891, “Massively parallel profiling of RNA-targeting CRISPR-Cas13d”.

First the molecules themselves.
B1: target 1 U3G,U19C (mixed)
RNA 1: CACCCGUGCAAAAAUGCAGGGGUCUAAAACUGAGCGGAUAACCUCUCUAUGG
RNA 2: GGGAAUGGAUCCACAUCUACGAAUUCGUACCACAGAGAGGUUAUCCGCGCACCGAGAUCGGAAGAGCACACGU
B2: target 1 A1G,U11C (mixed)
RNA 1: CACCCGUGCAAAAAUGCAGGGGUCUAAAACUGAGCGGAUAACCUCUCUAUGG
RNA 2: GGGAAUGGAUCCACAUCUACGAAUUCGUACCAUAGAGAGGCUAUCCGCUCGCCGAGAUCGGAAGAGCACACGU
B3: target 1 insC 3' of 14,insA 3' of 13 (mixed)
RNA 1: CACCCGUGCAAAAAUGCAGGGGUCUAAAACUGAGCGGAUAACCUCUCUAUGG
RNA 2: GGGAAUGGAUCCACAUCUACGAAUUCGUACCAUAGAGACGAGUUAUCCGCUCACCGAGAUCGGAAGAGCACACGU
B4: target 1 insU 3' of 5,insG 3' of 4 (mixed)
RNA 1: CACCCGUGCAAAAAUGCAGGGGUCUAAAACUGAGCGGAUAACCUCUCUAUGG
RNA 2: GGGAAUGGAUCCACAUCUACGAAUUCGUACCAUAGAGAGGUUAUCCGUCGUCACCGAGAUCGGAAGAGCACACGU
B5: target 1 insG 3' of 9,insG 3' of 3 (mixed)
RNA 1: CACCCGUGCAAAAAUGCAGGGGUCUAAAACUGAGCGGAUAACCUCUCUAUGG
RNA 2: GGGAAUGGAUCCACAUCUACGAAUUCGUACCAUAGAGAGGUUAGUCCGCUGCACCGAGAUCGGAAGAGCACACGU
B6: target 1 insG 3' of 20,insC 3' of 19 (mixed)
RNA 1: CACCCGUGCAAAAAUGCAGGGGUCUAAAACUGAGCGGAUAACCUCUCUAUGG
RNA 2: GGGAAUGGAUCCACAUCUACGAAUUCGUACCAGUCAGAGAGGUUAUCCGCUCACCGAGAUCGGAAGAGCACACGU
B7: target 1 insU 3' of 15,insA 3' of 3 (mixed)
RNA 1: CACCCGUGCAAAAAUGCAGGGGUCUAAAACUGAGCGGAUAACCUCUCUAUGG
RNA 2: GGGAAUGGAUCCACAUCUACGAAUUCGUACCAUAGAGUAGGUUAUCCGCUACACCGAGAUCGGAAGAGCACACGU
B8: target 1 insG 3' of 14,insG 3' of 14 (mixed)
RNA 1: CACCCGUGCAAAAAUGCAGGGGUCUAAAACUGAGCGGAUAACCUCUCUAUGG
RNA 2: GGGAAUGGAUCCACAUCUACGAAUUCGUACCAUAGAGAGGGGUUAUCCGCUCACCGAGAUCGGAAGAGCACACGU
B9: target 1 insA 3' of 15,insA 3' of 12 (mixed)
RNA 1: CACCCGUGCAAAAAUGCAGGGGUCUAAAACUGAGCGGAUAACCUCUCUAUGG
RNA 2: GGGAAUGGAUCCACAUCUACGAAUUCGUACCAUAGAGAAGGAUUAUCCGCUCACCGAGAUCGGAAGAGCACACGU
B10: target 1 insC 3' of 19,insC 3' of 19 (mixed)
RNA 1: CACCCGUGCAAAAAUGCAGGGGUCUAAAACUGAGCGGAUAACCUCUCUAUGG
RNA 2: GGGAAUGGAUCCACAUCUACGAAUUCGUACCAUCCAGAGAGGUUAUCCGCUCACCGAGAUCGGAAGAGCACACGU
B11: target 1 U10A,G12A (mixed)
RNA 1: CACCCGUGCAAAAAUGCAGGGGUCUAAAACUGAGCGGAUAACCUCUCUAUGG
RNA 2: GGGAAUGGAUCCACAUCUACGAAUUCGUACCAUAGAGAGAUAAUCCGCUCACCGAGAUCGGAAGAGCACACGU
B12: target 1 del4 (mixed)
RNA 1: CACCCGUGCAAAAAUGCAGGGGUCUAAAACUGAGCGGAUAACCUCUCUAUGG
RNA 2: GGGAAUGGAUCCACAUCUACGAAUUCGUACCAUAGAGAGGUUAUCCGUCACCGAGAUCGGAAGAGCACACGU
B13: target 1 C2U,U8C (mixed)
RNA 1: CACCCGUGCAAAAAUGCAGGGGUCUAAAACUGAGCGGAUAACCUCUCUAUGG
RNA 2: GGGAAUGGAUCCACAUCUACGAAUUCGUACCAUAGAGAGGUUACCCGCUUACCGAGAUCGGAAGAGCACACGU
B14: target 1 insG 3' of 20,insC 3' of 9 (mixed)
RNA 1: CACCCGUGCAAAAAUGCAGGGGUCUAAAACUGAGCGGAUAACCUCUCUAUGG
RNA 2: GGGAAUGGAUCCACAUCUACGAAUUCGUACCAGUAGAGAGGUUACUCCGCUCACCGAGAUCGGAAGAGCACACGU
B15: target 1 insG 3' of 9,insU 3' of 6 (mixed)
RNA 1: CACCCGUGCAAAAAUGCAGGGGUCUAAAACUGAGCGGAUAACCUCUCUAUGG
RNA 2: GGGAAUGGAUCCACAUCUACGAAUUCGUACCAUAGAGAGGUUAGUCCUGCUCACCGAGAUCGGAAGAGCACACGU
B16: target 1 insA 3' of 11,insA 3' of 8 (mixed)
RNA 1: CACCCGUGCAAAAAUGCAGGGGUCUAAAACUGAGCGGAUAACCUCUCUAUGG
RNA 2: GGGAAUGGAUCCACAUCUACGAAUUCGUACCAUAGAGAGGUAUAUACCGCUCACCGAGAUCGGAAGAGCACACGU
B17: target 1 complement block 8-12 (mixed)
RNA 1: CACCCGUGCAAAAAUGCAGGGGUCUAAAACUGAGCGGAUAACCUCUCUAUGG
RNA 2: GGGAAUGGAUCCACAUCUACGAAUUCGUACCAUAGAGAGCAAUACCGCUCACCGAGAUCGGAAGAGCACACGU
B18: target 1 insU 3' of 20,insU 3' of 12 (mixed)
RNA 1: CACCCGUGCAAAAAUGCAGGGGUCUAAAACUGAGCGGAUAACCUCUCUAUGG
RNA 2: GGGAAUGGAUCCACAUCUACGAAUUCGUACCAUUAGAGAGGUUUAUCCGCUCACCGAGAUCGGAAGAGCACACGU
B19: target 1 insC 3' of 16,insC 3' of 15 (mixed)
RNA 1: CACCCGUGCAAAAAUGCAGGGGUCUAAAACUGAGCGGAUAACCUCUCUAUGG
RNA 2: GGGAAUGGAUCCACAUCUACGAAUUCGUACCAUAGACGCAGGUUAUCCGCUCACCGAGAUCGGAAGAGCACACGU
B20: target 1 insG 3' of 10,insC 3' of 5 (mixed)
RNA 1: CACCCGUGCAAAAAUGCAGGGGUCUAAAACUGAGCGGAUAACCUCUCUAUGG
RNA 2: GGGAAUGGAUCCACAUCUACGAAUUCGUACCAUAGAGAGGUUGAUCCGCCUCACCGAGAUCGGAAGAGCACACGU
B21: target 1 insC 3' of 19,insC 3' of 3 (mixed)
RNA 1: CACCCGUGCAAAAAUGCAGGGGUCUAAAACUGAGCGGAUAACCUCUCUAUGG
RNA 2: GGGAAUGGAUCCACAUCUACGAAUUCGUACCAUCAGAGAGGUUAUCCGCUCCACCGAGAUCGGAAGAGCACACGU
B22: target 1 C2U,U11C (mixed)
RNA 1: CACCCGUGCAAAAAUGCAGGGGUCUAAAACUGAGCGGAUAACCUCUCUAUGG
RNA 2: GGGAAUGGAUCCACAUCUACGAAUUCGUACCAUAGAGAGGCUAUCCGCUUACCGAGAUCGGAAGAGCACACGU
B23: target 1 insC 3' of 19,insG 3' of 18 (mixed)
RNA 1: CACCCGUGCAAAAAUGCAGGGGUCUAAAACUGAGCGGAUAACCUCUCUAUGG
RNA 2: GGGAAUGGAUCCACAUCUACGAAUUCGUACCAUCAGGAGAGGUUAUCCGCUCACCGAGAUCGGAAGAGCACACGU
B24: target 1 insU 3' of 5,insA 3' of 3 (mixed)
RNA 1: CACCCGUGCAAAAAUGCAGGGGUCUAAAACUGAGCGGAUAACCUCUCUAUGG
RNA 2: GGGAAUGGAUCCACAUCUACGAAUUCGUACCAUAGAGAGGUUAUCCGUCUACACCGAGAUCGGAAGAGCACACGU
B25: target 1 insC 3' of 20,insU 3' of 5 (mixed)
RNA 1: CACCCGUGCAAAAAUGCAGGGGUCUAAAACUGAGCGGAUAACCUCUCUAUGG
RNA 2: GGGAAUGGAUCCACAUCUACGAAUUCGUACCACUAGAGAGGUUAUCCGUCUCACCGAGAUCGGAAGAGCACACGU
B26: target 1 insU 3' of 7,insG 3' of 7 (mixed)
RNA 1: CACCCGUGCAAAAAUGCAGGGGUCUAAAACUGAGCGGAUAACCUCUCUAUGG
RNA 2: GGGAAUGGAUCCACAUCUACGAAUUCGUACCAUAGAGAGGUUAUCUGCGCUCACCGAGAUCGGAAGAGCACACGU
B27: target 1 insA 3' of 15,insU 3' of 14 (mixed)
RNA 1: CACCCGUGCAAAAAUGCAGGGGUCUAAAACUGAGCGGAUAACCUCUCUAUGG
RNA 2: GGGAAUGGAUCCACAUCUACGAAUUCGUACCAUAGAGAAUGGUUAUCCGCUCACCGAGAUCGGAAGAGCACACGU

For this data set, the target named is T1, EsCas13d, nuclease-dead (Eubacterium siraeum, UniProt B0MS50, R295A;H300A;R849A;H854A).
T1 sequence: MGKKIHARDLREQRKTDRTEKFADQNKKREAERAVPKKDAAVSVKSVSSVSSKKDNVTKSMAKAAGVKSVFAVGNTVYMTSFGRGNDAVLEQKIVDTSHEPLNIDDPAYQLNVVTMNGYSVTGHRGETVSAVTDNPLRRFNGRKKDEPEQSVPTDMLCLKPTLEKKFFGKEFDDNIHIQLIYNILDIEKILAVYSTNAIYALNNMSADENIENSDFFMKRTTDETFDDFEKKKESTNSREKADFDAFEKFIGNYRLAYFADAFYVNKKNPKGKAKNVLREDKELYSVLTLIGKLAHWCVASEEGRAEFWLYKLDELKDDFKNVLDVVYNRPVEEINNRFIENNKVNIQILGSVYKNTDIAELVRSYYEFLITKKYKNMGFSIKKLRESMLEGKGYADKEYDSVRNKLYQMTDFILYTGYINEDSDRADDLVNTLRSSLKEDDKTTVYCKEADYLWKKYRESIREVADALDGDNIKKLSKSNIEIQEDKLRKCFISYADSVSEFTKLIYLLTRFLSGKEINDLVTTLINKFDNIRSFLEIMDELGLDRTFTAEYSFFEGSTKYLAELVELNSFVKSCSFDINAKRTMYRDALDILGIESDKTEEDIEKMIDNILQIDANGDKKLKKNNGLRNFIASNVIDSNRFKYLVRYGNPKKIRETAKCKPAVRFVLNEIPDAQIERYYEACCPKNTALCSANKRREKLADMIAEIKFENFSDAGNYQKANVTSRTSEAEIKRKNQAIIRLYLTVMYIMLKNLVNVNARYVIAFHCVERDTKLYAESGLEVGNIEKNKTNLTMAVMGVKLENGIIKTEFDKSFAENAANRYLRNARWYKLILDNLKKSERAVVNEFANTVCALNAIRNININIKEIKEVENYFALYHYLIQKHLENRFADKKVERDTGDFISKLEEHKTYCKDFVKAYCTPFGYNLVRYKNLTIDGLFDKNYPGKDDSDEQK
The data set can be described thus: crRNA (strand 1, pre-loaded); Mg2+; 40 mM Tris-HCl pH 7.5, 150 mM NaCl, 6 mM MgCl2, 1 mM DTT, 0.1% Tween-20, 0.2 mg/ml BSA; 25 C; 10 min per concentration, then washed. Particulars: tags: His6-TwinStrep-SUMO cleaved; N-terminal SNAP kept (SNAP-Surface 488); label: 3' end held by stalled T7 RNA polymerase.
By Kd is commonly meant the concentration at which binding is half-saturated. Molecule B1 gave an equilibrium dissociation constant (Kd) of 25.1 ± 3.4 nM. In turn, B2 came in with a Kd of 8.4 ± 0.5 nM. To B3 belongs 28 ± 7 nM; to B4, 12.7 ± 0.9 nM. B5: the Kd stood at 10.3 ± 0.5 nM. The value for B6 was 59 ± 10 nM; that for B7 was 8.9 ± 0.6 nM; that for B8 was 7.7 ± 0.6 nM. On to B9, for which the affinity, expressed as Kd, was 42 ± 5 nM.

B10 yielded a Kd of 29.2 ± 3.5 nM. The molecule B11 yielded a Kd of 5.86 ± 0.25 nM. With B12, the Kd was determined as 34 ± 7 nM. Take B13: the dissociation constant (Kd) is 10.1 ± 0.8 nM.

B14: the Kd is about 45 nM.

For the molecule B15, binding was characterised by a dissociation constant (Kd) of 20.3 ± 1.2 nM. To B16 belongs 39.7 ± 3.3 nM; to B17, 12.7 ± 0.8 nM. B18 returned a Kd of 11.5 ± 0.7 nM.

As to B19, the Kd was determined as 84 ± 27 nM. Take B20: the Kd worked out at 46 ± 8 nM. As for B21, binding was put at a Kd of 30 ± 4 nM. Turning to B22, the Kd stood at 9.5 ± 0.4 nM.

In turn, B23 displayed a Kd of 89 ± 19 nM.

As to B24, the Kd is 19.9 ± 1.7 nM. Turning to B25, the Kd turned out to be 8.6 ± 0.9 nM.

On to B26, for which the Kd was determined as 9.1 ± 0.6 nM. In the case of B27, the Kd was determined as 21.1 ± 1.8 nM.
